Six substances from patent publication US20200024330A1 can be followed below.

Holding throughout (assay): cell-based or functional assay
Experiment [1] concerns the target HIV-1 MGRM-F1-018 Env (pseudovirus) (HIV-1).
Experiment [2] addresses HIV-1 MGRM-F1-014 Env (pseudovirus) (HIV-1).
The target of experiment [3] is HIV-1 Env of isolate MGRM-G-025 (clade G pseudovirus) (HIV-1).
In experiment [4] the target is HIV-1 Env of pseudovirus TRJ0.58 (Acute), clade B (HIV-1).
Experiment [5] deals with HIV-1 MGRM-C-017 Env (HIV-1).
Experiment [6] concerns the target HIV-1 Env of isolate MGRM-D-029 (clade D) (HIV-1).
Experiment [7] deals with HIV-1 93UG077 envelope protein (Env) on pseudovirus (HIV-1).
In experiment [8] the target is HIV-1 MGRM-F1-015 Env (pseudovirus) (HIV-1).
Experiment [9] has as its target HIV-1 Env of isolate MGRM-D-008 (clade D) (HIV-1).
The target in experiment [10] is HIV-1 MGRM-C-010 Env (HIV-1).
The target in experiment [11] is HIV-1 Env of isolate MGRM-D-002 (clade D) (HIV-1).
Experiment [12] deals with HIV-1 Env of isolate MGRM-D-001 (clade D) (HIV-1).
The target of experiment [13] is HIV-1 Env of isolate 92UG001 (clade D) (HIV-1).
Experiment [14] concerns the target HIV-1 Env of isolate SF162 (HIV-1) (UniProt P19549).
In experiment [15] the target is HIV-1 92UG024 envelope protein (Env) on pseudovirus (HIV-1).
Experiment [16] has as its target HIV-1 93RW029 envelope glycoprotein (Env) (HIV-1).
For experiment [17], the target named is HIV-1 93IN905 envelope glycoprotein (Env) on pseudovirus (HIV-1).
The target of experiment [18] is HIV-1 APV-6 envelope protein (Env) on pseudovirus (HIV-1).
For experiment [19], the target named is HIV-1 MGRM-C-012 Env (HIV-1).
The target of experiment [20] is HIV-1 Env of pseudovirus MGRM-Chronic-B-001, clade B (HIV-1).

HIV-1 Env of isolate SF162 (HIV-1), sequence (P19549 32-852 limits assumed): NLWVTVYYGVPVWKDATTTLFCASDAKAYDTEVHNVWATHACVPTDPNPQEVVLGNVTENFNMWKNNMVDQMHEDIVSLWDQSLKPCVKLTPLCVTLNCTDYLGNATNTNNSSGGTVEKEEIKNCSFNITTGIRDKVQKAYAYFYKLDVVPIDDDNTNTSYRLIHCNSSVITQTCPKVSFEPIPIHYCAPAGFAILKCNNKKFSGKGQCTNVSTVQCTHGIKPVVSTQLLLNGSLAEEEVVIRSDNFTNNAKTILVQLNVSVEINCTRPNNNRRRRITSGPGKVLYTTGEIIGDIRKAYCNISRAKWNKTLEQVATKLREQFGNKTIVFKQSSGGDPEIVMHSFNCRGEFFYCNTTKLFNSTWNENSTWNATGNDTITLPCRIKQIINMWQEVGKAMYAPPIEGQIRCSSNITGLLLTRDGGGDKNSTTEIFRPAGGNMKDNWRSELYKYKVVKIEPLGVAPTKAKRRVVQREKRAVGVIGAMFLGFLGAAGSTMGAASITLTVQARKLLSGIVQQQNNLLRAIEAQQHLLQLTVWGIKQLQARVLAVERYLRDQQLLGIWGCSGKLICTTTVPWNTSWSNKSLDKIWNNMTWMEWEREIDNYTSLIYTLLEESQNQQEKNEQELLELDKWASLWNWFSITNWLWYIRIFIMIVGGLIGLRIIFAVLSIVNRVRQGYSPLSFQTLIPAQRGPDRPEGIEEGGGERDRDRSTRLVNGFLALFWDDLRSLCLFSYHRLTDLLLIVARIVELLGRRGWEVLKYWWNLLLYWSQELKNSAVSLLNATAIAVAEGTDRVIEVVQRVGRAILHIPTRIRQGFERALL
1443_C16 (PG16) (TCN-116) (antibody), sequence (VH): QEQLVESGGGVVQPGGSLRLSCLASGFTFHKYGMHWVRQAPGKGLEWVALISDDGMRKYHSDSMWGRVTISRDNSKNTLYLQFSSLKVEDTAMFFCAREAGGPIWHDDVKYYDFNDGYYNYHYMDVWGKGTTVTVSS
1443_C16 (PG16) (TCN-116) (antibody), sequence (VL): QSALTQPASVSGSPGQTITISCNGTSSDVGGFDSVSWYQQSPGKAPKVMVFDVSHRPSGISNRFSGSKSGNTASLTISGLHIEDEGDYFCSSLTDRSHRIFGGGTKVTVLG

Usually IC50 stands for the concentration needed to halve the response being measured. Higher therefore signals weaker potency. With 2F5 (antibody), the IC50 (µg/ml), pseudovirus neutralization in experiment [1] was 3.91 µg/mL; in experiment [2] it was 15.1 µg/mL; in experiment [3] it was > 50 µg/mL; in [4], > 50 µg/mL; in experiment [6], > 50 µg/mL; in experiment [8] it was 0.1 µg/mL. Also, the IC50 (µg/ml), pseudovirus neutralization in [9] was > 50 µg/mL; in experiment [11] it was 24.6 µg/mL; in [12], 0.63 µg/mL; in [13], 13 µg/mL; in experiment [14], 2.52 µg/mL; in experiment [16], > 50 µg/mL. Also, the IC50 (µg/ml), pseudovirus neutralization in experiment [20] worked out at 0.55 µg/mL. In addition, the IC50 in experiment [5], in [10] and in experiment [19] was > 50 µg/mL in each case. Also, the neutralization IC50 in experiment [7] is 4.45 µg/mL; in experiment [15] it was 1.27 µg/mL; in experiment [18] it was 0.1 µg/mL. The IC90 (pseudovirus neutralization) in experiment [17] was > 50 µg/mL.
For 2G12 (antibody), the IC50 (µg/ml), pseudovirus neutralization was > 50 µg/mL in [1]; > 50 µg/mL in experiment [2]; 31.9 µg/mL in experiment [3]; > 50 µg/mL in [4]; > 50 µg/mL in [6]; > 50 µg/mL in [8]. Also, the IC50 (µg/ml), pseudovirus neutralization is > 50 µg/mL in [9]; > 50 µg/mL in [11]; > 50 µg/mL in experiment [12]; > 50 µg/mL in experiment [13]; 1.67 µg/mL in experiment [14]; > 50 µg/mL in [16]. Further, in experiment [20], the IC50 (µg/ml), pseudovirus neutralization was 0.08 µg/mL. Further, the IC50 in experiment [5], in experiment [10] and in experiment [19] was > 50 µg/mL throughout. Further, the results for the neutralization IC50 in [7], in experiment [15] and in [18] were > 50 µg/mL, 0.59 µg/mL and 5.3 µg/mL, respectively. In experiment [17], the IC90 (pseudovirus neutralization) is > 50 µg/mL.
4E10 (antibody): the IC50 (µg/ml), pseudovirus neutralization in experiment [1] was determined as 3.6 µg/mL; in experiment [2] it was 7.36 µg/mL; in [3], 1.7 µg/mL; in [4] it was 11.9 µg/mL; in [6], 5.3 µg/mL; in [8], 0.53 µg/mL. For the same substance, the IC50 (µg/ml), pseudovirus neutralization was 42.9 µg/mL in experiment [9]; 9.44 µg/mL in experiment [11]; 1.84 µg/mL in experiment [12]; 13.6 µg/mL in experiment [13]; 4.28 µg/mL in experiment [14]; 15.5 µg/mL in [16]. This substance also had an IC50 (µg/ml), pseudovirus neutralization in experiment [20] of 1.46 µg/mL. Besides, the IC50 amounted to 1.47 µg/mL in experiment [5], 11 µg/mL in [10] and 0.44 µg/mL in experiment [19]. Besides, the neutralization IC50 in experiment [7] is 11.2 µg/mL; in experiment [15] it was 1.32 µg/mL; in [18], 0.4 µg/mL. This substance yielded an IC90 (pseudovirus neutralization) in [17] of 12.8 µg/mL.
For the substance 1443_C16 (PG16) (TCN-116) (antibody), the IC50 (µg/ml), pseudovirus neutralization in experiment [1] was 0.01 µg/mL; in [2], 0.01 µg/mL; in [3], > 50 µg/mL; in experiment [4], 1.16 µg/mL; in experiment [6], > 50 µg/mL; in experiment [8], > 50 µg/mL. Besides, the IC50 (µg/ml), pseudovirus neutralization is > 50 µg/mL in experiment [9]; 0.01 µg/mL in experiment [11]; > 50 µg/mL in experiment [12]; > 50 µg/mL in experiment [13]; > 50 µg/mL in [14]; 3.83 µg/mL in experiment [16]. Further, the IC50 (µg/ml), pseudovirus neutralization in experiment [20] is > 50 µg/mL. Besides, the IC50 in experiment [5] was 1.8 µg/mL; in experiment [10] it was > 50 µg/mL; in experiment [19], 0.48 µg/mL. The neutralization IC50 in experiment [7] was > 50 µg/mL; in experiment [15] it was > 50 µg/mL; in experiment [18], 0.08 µg/mL. Also, the IC90 (pseudovirus neutralization) in experiment [17] is > 50 µg/mL.
On to 1495_C14 (PGC14) (antibody), for which the IC50 (µg/ml), pseudovirus neutralization in [1], in [2], in experiment [3], in [4], in experiment [6] and in experiment [8] was > 50 µg/mL each time. In addition, the IC50 (µg/ml), pseudovirus neutralization was > 50 µg/mL in experiment [9]; 29 µg/mL in [11]; > 50 µg/mL in experiment [12]; > 50 µg/mL in experiment [13]; < 0.0025 µg/mL in [14]; 42 µg/mL in experiment [16]. In experiment [20], the IC50 (µg/ml), pseudovirus neutralization is > 50 µg/mL. Besides, the IC50 in [5], in [10] and in [19] was > 50 µg/mL throughout. Moreover, the neutralization IC50 in experiment [7] is > 50 µg/mL; in [15], > 50 µg/mL; in experiment [18] it was 7.41 µg/mL.
As for b12 (antibody), the IC50 (µg/ml), pseudovirus neutralization in experiment [1], in experiment [2], in experiment [3], in experiment [4], in experiment [6] and in [8] was > 50 µg/mL each time. For the same substance, the IC50 (µg/ml), pseudovirus neutralization in experiment [9] was > 50 µg/mL; in experiment [11], > 50 µg/mL; in [12], > 50 µg/mL; in experiment [13], 1.01 µg/mL; in experiment [14] it was 0.02 µg/mL; in experiment [16], > 50 µg/mL. Also, the IC50 (µg/ml), pseudovirus neutralization in [20] amounted to 0.75 µg/mL. Further, the IC50 in experiment [5], in experiment [10] and in experiment [19] was > 50 µg/mL each time. In addition, the neutralization IC50 in experiment [7] was 41.1 µg/mL; in experiment [15], 49.1 µg/mL; in [18] it was > 25 µg/mL. Also, the IC90 (pseudovirus neutralization) in experiment [17] was > 50 µg/mL.
